Patent publication US20070082380A1 (ARMAGEN TECHNOLOGIES, published 2007)

Target: T1, human insulin receptor extracellular domain (HIR ECD) (human, UniProt P06213 28-956, limits assumed)
T1 construct: extracellular domain
Assay: competitive ligand binding assay, displacement of [125I] murine HIRMAb from plated HIR ECD, Scatchard analysis
Description: CHO cells permanently transfected with the HIR ECD were grown in serum free media (SFM), and the HIR ECD was purified with a wheat germ agglutinin affinity column.

B1: chimeric HIRMAb (chimeric monoclonal antibody to the human insulin receptor) (antibody, human IgG1, kappa)
heavy: not shown
light: DIQMTQSPSSLSASLGERVSLTCRASQDIGGNLYWLQQGPDGTIKRLIYATSSLDSGVPKRFSGSRSGSDYSLTISSLESEDFVDYYCLQYSSSPWTFGGATKMEIKRTVAAPSVFIFPPSDEQLKSGTASVVCLLNNFYPREAKVQWKVDNALQSGNSQESVTEQDSKDSTYSLSSTLTLSKADYEKHKVYACEVTHQGLSSPVTKSFNRGEC
notes: chimeric human IgG1/kappa
For B1, the Ki was 0.63 nM.
